Assay results published in the nanobody polyreactivity screen of Harvey et al. (2022).

Test: yeast display, Sf9 membrane polyspecificity reagent, FACS + sequencing; frameworks hold sequencing errors
Outline: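 Galactose-induced (36–48 hours) yeast carrying a synthetic nanobody display library were exposed to 10% biotinylated, detergent-solubilized Sf9 membrane reagent at 4 °C for 1 hour. FACS followed streptavidin microbead enrichment, using low and high (top ~1%) gates for expression (anti-HA) and reagent binding (streptavidin). Colony PCR, MiSeq 2 × 250 sequencing and CDR-length filtering followed. Labels for polyreactivity reflect the gate of origin.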

| Sequence | polyreactivity (PSR sort gate) |
| --- | --- |
| QVQLVESGGGLVHAGGSLRLSCAASGSTLRGYVMGWYRQAPGKERELVAAITQRAGSTYYADSVKGRFTISRDNAKNPVYLQMNSLKAEDTAVYYCNVDRHYAVESGYWGQGTQVTVSS | high polyreactivity |
| QVQLVESGGGLVQAGGSLRLSCAASGITFGTNAMGWYRQAPGKERELVAAISGGGGSTYYADSVKGRFTISRDNAKYTVYLQMTCLKPEDTAFYYCAARRFKRSSLSFYVGYYYWGQGTQVTVSS | high polyreactivity |
| QVQLVESGGGLVQAGGSLRLICAASGRIFGKNDMGWYREAPRKEREFVATIDWSGGSTYYADSVKGRFTISRDNAKNTVDLQMNSLIPEDNAVYYCAARQYWTTDLPFQRYYYWGQGTQVTVSS | low polyreactivity |
| QVQLVESGGGLVQAGGSLRLSCAASGGIFRGYAMGWYRQAPGKERELVATITFSGTSTNYADSVKGRFTISRDNAKNTVYFQMNRLKPEDTAVYYFAAGPVFGGGGYDYWGKGTQVTVSS | low polyreactivity |
| QVQLVESGGGLVQAGGSLRLSCAAYGRILSVYAMGWYRQAPGKERELVAAISSTGGTYYADSVKGRFTISRDNAKNTVYLQMNSLKPEDTADYYCAARYSTLTKYYWGQGTQVTVSS | low polyreactivity |
| QVQLVESGGGIVQAGGSLRLICAASGSTFYPYAMGWYRQAPGKERELVAGISWSGGSTYYADSVKGRFTISRDNAKYTVYLQMNSLKPEDTAVYYCAVDVYWSVIYDYWGQGTQVTVSS | low polyreactivity |
| QVQLVESGGGLVQAGGSLRLSCAASGGIFQGNVMGWYRQAPGKERELVASIRRGGSTNYADSVKGRFTISRDNAKNTVYLQMNSLKPEDTAVYYCSARKWVGYHVWPLREYNYWGQGTQVTVSS | low polyreactivity |
| QVQLVESGGGLVQAGGSLRLSCAASGRTYGVYAMGWYRQAPGKERELVATITLSGGRTYYAHSVKGRFTISRDNAKNTVYLEMNSLKPEDSAVYYCNARFSYYYGFRASRLDYWGQGTQVNVSS | high polyreactivity |
| QVQLVESGGGLVQAGGSLRLSCAASGITFNLNDMGWYRQAPGKERELVAAITSGGNTSYADSVKGRFTISRDNAKNTVDLQMNSLKPEDTAVYYCATEDFRTDTGMYYWGQGTQVTVSS | low polyreactivity |
| QVQLEESGGGLVQAGGSLRLSCADSGRTFRFYTIGWYRQAPGKERELVASISWGGTSTYYADSVKGRFTISRDNANNTVYLQMISLKPEDTAVYSCAAPRWVEGFRFDYWGQGTQVTVSS | high polyreactivity |
| QVQLVESGGGLVQAGGSLRLSCAASGRTFYFNAMGWYRQAPGKERELVATITRRGGSTSYADSVKGRFTISRDNAKNTVYLQMNSLKPEDTAVYYCGNVSPPKFPERFDYWGQGTQVTVSS | low polyreactivity |
| QVQLVESGGGLVQAGGSLRLSCAASGSTFYGNDMGWYRQAPGKERELVAAISSGGSTNYADSVKGRFTISRDNAKNTVYLQMNSLKPEDTAVYYCAADDTPDTMYGSDYWGQGTQVTVSS | low polyreactivity |
| QVQLVESGGGLVQAGGSLRLSCAASGRTFKLNAMGWYRQAPGKERELVAAISRNGGSTYYADSVKGRFTISRDNAKNTVYLQMNSLKPEDTAVYYCAAVRHGVSLAGYYWGQGTQVTVSS | high polyreactivity |
| QVQLVESGGGLVQAGGSLRLSCAASGSTFAHKAMGWYRQAPGKEGEFVAGISTNGGSTYYADSVKGRFTISRDNAKNTVYLQMNSLKPEDTAVYYCAAVNYYDQYGDYYWGQGTQVTVSS | low polyreactivity |
| QVQLVESGGGLVQAGGSLRLSCAASGFTFYAYAMGWYRQAPGKERELVAVISQSGTRTYYADSVKGRFTISRDNAKNTVYLQMNSLKPEDTAVYYCAADTYSPDREYGYWGQGTQVTVSS | high polyreactivity |
| QVQLVESGGGLVQAGGSLRLSCAASGRIFYGNAMGWYRQAPGKVRELVAAISSGTSTNYADSVKGRFTISRDNAKNPVYLQMNSLKPEDTAVYYCAAGSYSRYLYSLYFDFDYWGQGTQVTVSS | low polyreactivity |

| Sequence | polyreactivity (PSR sort gate) |
| --- | --- |
| QEQLQESGGGQVQAGGSLLLSCAASGNIIRYYYMGWYRQAPGKERELVAAITYGTSTNYADSVKGRFTISRDNEKNTVYLQMNSLKPEDSAVYYFAVVVNYGDPLVNWGQGTQVTVSS | high polyreactivity |
| QVQLVESGGGLVEAGGRLSLSCAASGSIFHRNAMGGFRQAPGTERELVAAITYSGGGTYYADSVKGRFTISRDNAKNTVYLQMNSLKPEDTAVYYCAADYKSKYSRYIYDYWGQGPQVTVSS | low polyreactivity |
| QVQLVESGGGLVQAGGSLRLSCAASGRIFGGYAMGWYRQAPGKERELVAVITDGGSTNYADSVKGRFTISRDNAKNTVYLQMNSLKPEDTAVYYCAADDRIYPRGYDKMDYWGQGTQVTVSS | low polyreactivity |
| QVQLVESGGGLVQAGGSLRLSCAASGSTFYHYAMGWYRQAPGKERELVAAISTGGSTYYADSVKGRFTISRDNAKNTVYLQMNSLKPEDTAVYYCNARYIGGYGYWGQGTQVTVSS | low polyreactivity |
| QFQLVESCAGLVQAGGSLRLSCADSGRIFRQYAMGWYIPAPGKERELVASITRNGGSTYYADSVKGRFTISRDNAKNTVYLQMNSQKPEDTAVYYCAKDVKGSYAYDSWGQGTQVTVSS | high polyreactivity |
| QVQLVESGGGLVQAGGSLRLSCAASGFIFAIYAMGWYRQAPGKERELVAAITSSSSTYADSVKGRFTISRDNAKNTVYLQMNSLKPEDTAVYYCAADTYSYRNSNDYWGQGTQVTVSS | low polyreactivity |
| QVQLVESGGGLVQAGGSLRLSCAASGLIFYAYAMGWYRQAPGKERELVAGIWIDDSTYYADSVKGRFTISRDNAKNTVYLQMNSLKPEDTAVYYCNKRVRSYYLYRGDYWGQGTQVTVSS | low polyreactivity |
| QVQLVESGGGLVQAGGSLRLSCAASGSTFKWYAMGWYRQAPGKERELVAAISSRGGSTYYADSVKGRFTISRDNAKNTVYLQMNSLKPEDTAVYYCNALVRPQWSYNDFDYWGQGTQVTVSS | high polyreactivity |
| QVHLVESGGGLVKAGGSLRLSCAASGRTFYKYAKGWYRQAPGKEREFVADISSRGGSTYYEDSVKGRFTISRDNAKNTLYLQMNSLKPEDTAVYYCNSRRNSVRYNYWGQGTQVTVSS | high polyreactivity |
| QVQLVESGGGLVQAGGSLRLSCGGSGSTFYVNAMGWYRQAPGKEREFVAAITWNSGSTYYADSVKGRFTISRDNAKNTVYLQMHSLKPEDTAVYYCAAVLSVRVYGYDYWGQGTQVTVSS | low polyreactivity |
| QVQLEESGGGLVQAGGSLRLSCAASGSTFWFNAMGWYRQAPGKERELVAVITWSGDGTYYADSVKGRFTISRDNANYTVYLQRNSLKPEDTAVYYCAKGFERYPWYDYWGQGTQVTVSS | low polyreactivity |
| QVQLVESGGGLVQAGVSLRLSCAASGITFARYTMGWYRQAPGKERELVAAINTSGGSTRYADSVKGRFTISRDNAKNTVYLQMNSLKPEDTAVYYCAARRKHSLFGKRYYWGQGTQVTVSS | high polyreactivity |
| QVQLVESGGGLVQAGGSLRLSCAASGRTFYYYAMGWYRQAPGKERELVAVIRFSDGSTYYADSVKGRFTISRDNAKNTVYLQMNSLKPEDTAVYYCAAKGPRRWGSGFDYWGQGTQVTVSS | low polyreactivity |
| QVQLVESGGGLVQAGGSLRLSCAASGRTFAQYGMVWYRQAPGKEMELVAAISRRTGSTNYADSVKGRFTISRDNAKNTVYLQMNSLKPEDTAVYYCAARSYSYGVGYGYWGQGTQVTVSS | high polyreactivity |
| QVHLVESGGGLVQAGGSLRLSCAASGLTFYWYTMGWYRQAPGKERELVAAITSGGSTSYADSVKGRFTISRDNAKNTVYLQMNSLKPEDTAVYYCAADGQVSGYDYWGQGTQVTVSS | high polyreactivity |
| QVQLVESGGGLVQAGGSLRLSCAASGRIFRRYTMGWSRQAPGKERELVAAISSGGSTNYADSVKGRFTISRDNANNTVYLQMNSLKPEDTAVYYCAARFASRQHTIYYYWGQGTQVTVSS | high polyreactivity |
